# Data: the RNAGym collection of RNA variant scans (doi:10.1101/gr.219683.116)
# B1: mRNA-splicing (parent)
# chain: AGUUGCUGCUGGGAGCUCCAGCACAGUGAAAUGGACAGAAGGGCAGAGCAA
# Variants of: B1
# Test: exon inclusion enrichment index; higher = more inclusion; WT1 exon 5 minigene, HEK293
row,Variant,exon inclusion enrichment index
1,G5U G8U U10C,1.8
2,G5U G8U U10G,1.8
3,G5U U7A C9A U10A,0.286
4,G5U U7A C9U,0.173
5,G5U U7A G8A C9U,0.454
6,G5U U7A G8C C9U,0.582
7,G5U U7A G8U C9A,0.367
8,G5U U7A G8U C9U,0.343
9,G5U U7C C9A U10C,2.66
10,G5U U7C C9U,0.916
11,G5U U7C G8A C9U,0.504
12,G5U U7C G8A U10A,0.168
13,G5U U7C G8A U10C,1.83
14,G5U U7C G8C C9U,0.364
15,G5U U7C G8U C9U,0.184
16,G5U U7C U10C,3.02
17,G5U U7G C9A,2.09
18,G5U U7G C9U,0.575
19,G5U U7G G8A C9U,1.04
20,G5U U7G G8C C9U,1.58
21,G5U U7G G8U C9U,0.893

row,Variant,exon inclusion enrichment index
1,C6A,0.079
2,C6A C9A U10A,0.333
3,C6A C9A U10C,2.01
4,C6A G8A C9A U10A,0.0495
5,C6A G8A C9A U10C,0.666
6,C6A G8C C9A U10A,0.392
7,C6A G8C C9A U10C,1.49
8,C6A G8C C9U U10C,1.43
9,C6A G8U C9A U10A,0.023
10,C6A G8U C9A U10C,0.728
11,C6A G8U C9U,0.134
12,C6A U7A,0.261
13,C6A U7A C9A,1.65
14,C6A U7A C9A G11A,0.721
15,C6A U7A C9A G11C,3.26
16,C6A U7A C9A G11U,2.86
17,C6A U7A C9A U10A,0.801
18,C6A U7A C9A U10A A14C,0.774
19,C6A U7A C9A U10A A14C G15A,0.473
20,C6A U7A C9A U10A A14C G15C,0.452
21,C6A U7A C9A U10A A14C G15U,0.408

row,Variant,exon inclusion enrichment index
1,C6A U7A C9A U10A A14G,0.618
2,C6A U7A C9A U10A A14G G15A,0.841
3,C6A U7A C9A U10A A14G G15C,0.529
4,C6A U7A C9A U10A A14G G15U,0.274
5,C6A U7A C9A U10A A14U,0.301
6,C6A U7A C9A U10A A14U G15A,0.217
7,C6A U7A C9A U10A A14U G15C,0.336
8,C6A U7A C9A U10A A14U G15U,0.295
9,C6A U7A C9A U10A A20C,0.58
10,C6A U7A C9A U10A A20C G21A,0.223
11,C6A U7A C9A U10A A20C G21C,0.209
12,C6A U7A C9A U10A A20C G21U,0.286
13,C6A U7A C9A U10A A20G,1.05
14,C6A U7A C9A U10A A20G G21A,1.2
15,C6A U7A C9A U10A A20G G21C,0.891
16,C6A U7A C9A U10A A20G G21U,0.779
17,C6A U7A C9A U10A A20U,0.829
18,C6A U7A C9A U10A A20U G21A,0.432
19,C6A U7A C9A U10A A20U G21C,0.712
20,C6A U7A C9A U10A A20U G21U,0.376
21,C6A U7A C9A U10A A23C,0.443

row,Variant,exon inclusion enrichment index
1,C6A U7A C9A U10A A23C C24A,0.907
2,C6A U7A C9A U10A A23C C24G,1.83
3,C6A U7A C9A U10A A23C C24U,0.243
4,C6A U7A C9A U10A A23G,1.32
5,C6A U7A C9A U10A A23G C24A,1.85
6,C6A U7A C9A U10A A23G C24G,1.58
7,C6A U7A C9A U10A A23G C24U,0.189
8,C6A U7A C9A U10A A23U,0.394
9,C6A U7A C9A U10A A23U C24A,0.207
10,C6A U7A C9A U10A A23U C24G,0.918
11,C6A U7A C9A U10A A23U C24U,0.0381
12,C6A U7A C9A U10A A25C,2.61
13,C6A U7A C9A U10A A25C G26A,1.67
14,C6A U7A C9A U10A A25C G26C,1.25
15,C6A U7A C9A U10A A25C G26U,1.21
16,C6A U7A C9A U10A A25G,1.94
17,C6A U7A C9A U10A A25G G26A,2.29
18,C6A U7A C9A U10A A25G G26C,2.3
19,C6A U7A C9A U10A A25G G26U,1.43
20,C6A U7A C9A U10A A25U,1.04
21,C6A U7A C9A U10A A25U G26A,0.899
